Experimental data taken from patent publication US20230391828A1 (TECHNISCHE UNIVERSIT T DRESDEN, published 2023).
Bridge positions count the residues as written; N and C are the ends. Square brackets hold non-standard residues; d marks the D form. R8 = C=CCCCCCC[C@@](C)(N)C(=O)O; S5 = C=CCCC[C@](C)(N)C(=O)O; Pra = C#CC[C@H](N)C(=O)O

Legend:
RBX1 = target: T1, RBX1 (human (HeLa K cells), UniProt P62877 2-108); assay: pull-down from HeLa K cell extract with G3-6Pra on azide magnetic beads, western blot
T1 construct: Detected by western blot after pull-down from HeLa K cell extract
T1 sequence (P62877 2-108 limits assumed): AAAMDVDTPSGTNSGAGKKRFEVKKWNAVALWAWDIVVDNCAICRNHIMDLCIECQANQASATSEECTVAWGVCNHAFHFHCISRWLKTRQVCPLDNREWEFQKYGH

Cullin 1 = target: T2, Cullin 1 (human (HeLa K cells), UniProt Q13616 1-776); assay: as above
T2 construct: Detected by western blot after pull-down from HeLa K cell extract; also called Cullin 1, subunit of E3 ubiquitin ligases related to the APC/C
T2 sequence (Q13616 whole entry): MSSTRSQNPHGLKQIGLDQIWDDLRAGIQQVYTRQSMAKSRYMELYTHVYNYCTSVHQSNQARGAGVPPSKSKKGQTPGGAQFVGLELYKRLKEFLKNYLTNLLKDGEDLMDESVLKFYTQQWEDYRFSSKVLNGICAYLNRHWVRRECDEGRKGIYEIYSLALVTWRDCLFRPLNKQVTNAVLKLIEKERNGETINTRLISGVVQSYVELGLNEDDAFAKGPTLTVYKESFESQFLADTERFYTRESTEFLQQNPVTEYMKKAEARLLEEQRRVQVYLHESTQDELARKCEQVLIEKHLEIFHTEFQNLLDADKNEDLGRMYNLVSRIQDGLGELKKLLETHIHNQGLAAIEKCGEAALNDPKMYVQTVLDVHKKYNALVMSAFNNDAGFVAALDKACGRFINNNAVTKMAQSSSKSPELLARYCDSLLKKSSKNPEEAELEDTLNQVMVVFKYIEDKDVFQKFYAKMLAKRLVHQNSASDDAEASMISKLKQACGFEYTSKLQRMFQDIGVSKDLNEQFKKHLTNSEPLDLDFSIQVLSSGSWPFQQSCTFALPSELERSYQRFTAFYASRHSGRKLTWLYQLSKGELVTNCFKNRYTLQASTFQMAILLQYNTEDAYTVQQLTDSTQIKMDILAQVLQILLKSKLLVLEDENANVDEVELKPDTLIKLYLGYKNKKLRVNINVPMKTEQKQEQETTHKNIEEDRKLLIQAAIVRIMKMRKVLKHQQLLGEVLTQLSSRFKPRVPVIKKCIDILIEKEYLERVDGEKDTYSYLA

B1: G3-6Pra, Ac-cyclo(4,11)-EWPraZIKEIQRXRRA-NH2 (peptide)
peptide: Ac-EW[Pra][R8]IKEIQR[S5]RRA-NH2
modifications: staple 4-11; not fully specified (residue 3); printed as Ac-cyclo(4,11)-EWWZIKEIQRXRRA-NH2
notes: In the pull-down it was covalently attached to azide magnetic beads through Pra; also called ID; NO; 37
Q: Does B1 bind (RBX1)?
A: no binding

Q: Does B1 bind (Cullin 1)?
A: no binding
